Drawing on publication PMC10875621, this text covers percent of DCC-HaloTag speckles in grip (immobile) phase in growth-cone filopodia of hippocampal neurons on netrin-1-coated substrate, TIRF speckle imaging (15% grip on polylysine alone) for one substance.

The assay has as its target netrin-1 (UniProt O95631).

“DCC-HaloTag (from UniProt P43146 26-1447) (receptor)” registered a percent of DCC-HaloTag speckles in grip (immobile) phase in growth-cone filopodia of hippocampal neurons on netrin-1-coated substrate, TIRF speckle imaging (15% grip on polylysine alone) of 40%.
